Data: patent US20220267444A1 (CTTQ AKESO SHANGHAI BIOMED TECH, published 2022)

Legend:
[1] = target: T1, Fc receptor FcγRIIIa_V158 (UniProt P08637 17-208); experiment: BLI (Fortebio Octet); sentence on Table 2, differs from the table's 6.12E-07
Protocol: (§1) 5 μg/mL FcγRIIIa_V158 was immobilized on the HIS1K sensor for 120 s. The sensor was equilibrated in a buffer for 60 s, and the binding of the immobilized FcγRIIIa_V158 on the sensor to the antibodies at concentrations of 31.25-500 nM (serial two-fold dilution) was determined for 60 s. The antibody was dissociated in the buffer for 60 s. The sensor was refreshed 4 times in 10 mM glycine pH 1.5, each for 5 s. The temperature was 30° C. and the frequency was 0.3 Hz. The data were analyzed by 1:1 model fitting to obtain affinity constants.

[2] = target: T1, Fc receptor FcγRIIIa_V158; experiment: BLI (Fortebio Octet); FcγRIIIa_V158 on HIS1K sensor, antibody 31.25-500 nM; 1:1 fit
Protocol: as §1

Serum complement C1q = Serum complement C1q (UniProt P02745 23-245; P02746 28-253; P02747 29-245); experiment: BLI (Fortebio Octet), antibody immobilised on FAB2G sensor, C1q in solution at 1.25-20 nM
Serum complement C1q, sequence (P02745 23-245 limits assumed, chain 1 of 3): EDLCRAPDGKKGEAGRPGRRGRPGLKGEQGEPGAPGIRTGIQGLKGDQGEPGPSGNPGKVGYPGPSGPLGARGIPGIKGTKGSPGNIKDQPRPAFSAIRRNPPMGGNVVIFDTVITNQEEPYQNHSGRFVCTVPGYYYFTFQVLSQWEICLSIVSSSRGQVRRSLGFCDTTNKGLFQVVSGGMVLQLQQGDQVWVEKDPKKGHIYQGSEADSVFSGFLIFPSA
Serum complement C1q, sequence (P02746 28-253 limits assumed, chain 2 of 3): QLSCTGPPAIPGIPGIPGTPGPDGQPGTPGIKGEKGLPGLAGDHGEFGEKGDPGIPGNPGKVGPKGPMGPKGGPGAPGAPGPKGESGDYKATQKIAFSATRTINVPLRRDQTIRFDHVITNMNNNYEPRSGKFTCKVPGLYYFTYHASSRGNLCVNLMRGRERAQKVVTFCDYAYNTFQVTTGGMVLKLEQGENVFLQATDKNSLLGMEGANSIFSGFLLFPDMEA
Serum complement C1q, sequence (P02747 29-245 limits assumed, chain 3 of 3): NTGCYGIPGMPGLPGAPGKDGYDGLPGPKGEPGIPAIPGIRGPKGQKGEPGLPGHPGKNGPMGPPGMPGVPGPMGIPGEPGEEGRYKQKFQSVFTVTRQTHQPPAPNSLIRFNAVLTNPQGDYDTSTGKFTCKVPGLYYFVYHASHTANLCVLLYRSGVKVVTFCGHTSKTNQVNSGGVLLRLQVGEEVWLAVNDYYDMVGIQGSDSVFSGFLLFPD
Protocol: 50 μg/mL antibody was immobilized on the FAB2G sensor at an immobilization height of about 2.0 nm. The sensor was equilibrated in a buffer for 60 s for blocking, and the binding of the immobilized antibody on the sensor to the antigen C1q at concentrations of 1.25-20 nM (serial two-fold dilution) was determined for 60 s. The antigen and antibody were dissociated in the buffer for 60 s. The sensor was refreshed 4 times in 10 mM glycine pH 1.7, each for 5 s. The shaking speed of the sample plate was 1000 rpm, the temperature was 30° C. and the frequency was 0.6 Hz. The data were analyzed by 1:1 model fitting to obtain affinity constants. The data acquisition software was Fortebio Data Acquisition 7.0, and the data analysis software was Fortebio Data Analysis 7.0.

Fc receptor FcγRIIb = target: T2, Fc receptor FcγRIIb (human, UniProt P31994 43-217); experiment: BLI (Fortebio Octet), hFcγRIIb-his immobilised on NTA sensor, antibody in solution at 12.5-200 nM
T2 construct: also called CD32b; hFcγRIIb-his; not shown: his tag named in 'hFcγRIIb-his'
T2 sequence (looked up): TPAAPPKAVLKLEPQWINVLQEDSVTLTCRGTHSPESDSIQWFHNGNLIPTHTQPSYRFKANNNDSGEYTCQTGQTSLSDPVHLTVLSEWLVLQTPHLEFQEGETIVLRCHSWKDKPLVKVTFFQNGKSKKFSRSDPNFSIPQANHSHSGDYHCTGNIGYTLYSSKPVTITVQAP
Protocol: 5 μg/mL hFcγRIIb-his was immobilized on the NTA sensor at an immobilization height of about 1.0 nm. The sensor was equilibrated in a buffer of 0.02% Tween-20, 0.02% casein and 0.1% BSA in PBS, pH 7.4 for 300 s of blocking, and the binding of the immobilized hFcγRIIb-his on the sensor to the antibodies at concentrations of 12.5-200 nM (serial two-fold dilution) was determined for 60 s. The antibody was dissociated in the buffer for 60 s. The sensor was refreshed in 10 mM glycine pH 1.7 and […] nickel sulfate. The temperature was 30° C. and the frequency was 0.6 Hz. The data were analyzed by 1:1 model fitting to obtain affinity constants.

[3] = target: Fc receptor FcγRIIIa_F158 (UniProt P08637 17-208); experiment: BLI (Fortebio Octet), FcγRIIIa_F158 immobilised on HIS1K sensor, antibody in solution at 31.25-500 nM
Fc receptor FcγRIIIa_F158, sequence (P08637 17-208 limits assumed): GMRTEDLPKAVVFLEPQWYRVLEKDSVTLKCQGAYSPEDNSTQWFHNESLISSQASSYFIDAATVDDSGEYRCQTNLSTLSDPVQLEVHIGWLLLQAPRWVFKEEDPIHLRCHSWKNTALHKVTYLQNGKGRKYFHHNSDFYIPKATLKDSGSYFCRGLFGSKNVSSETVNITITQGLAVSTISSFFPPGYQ
Protocol: as §1, with “FcγRIIIa_F158” for “FcγRIIIa_V158”

T1 sequence (P08637 17-208 F176V limits assumed): as the sequence (P08637 17-208 limits assumed) above, with F160V counted along it

B1: 14C12H1L1(hG1DM) (antibody, human IgG1, kappa, L234A L235A)
heavy: not shown
light: DIQMTQSPSSMSASVGDRVTFTCRASQDINTYLSWFQQKPGKSPKTLIYRANRLVSGVPSRFSGSGSGQDYTLTISSLQPEDMATYYCLQYDEFPLTFGAGTKLELKRTVAAPSVFIFPPSDEQLKSGTASVVCLLNNFYPREAKVQWKVDNALQSGNSQESVTEQDSKDSTYSLSSTLTLSKADYEKHKVYACEVTHQGLSSPVTKSFNRGEC
notes: Humanized anti-PD-1 IgG1 mutant of 14C12H1L1(hG1WT) with L234A and L235A in the heavy chain
With B1 the Kd [1] was 621 nM, the Kd [2] was 612 nM and the koff [2] was 0.0824 s⁻¹. The kon [2] was 135000 M⁻¹ s⁻¹, the binding result (Serum complement C1q) was “no binding (tested: 20 nM)” and the binding result (Fc receptor FcγRIIb) was “no binding (tested: 200 nM)”. B1: no binding (tested: 500 nM) [3].
